This experiment concerns the target T1, His-GSK3β (human, UniProt P49841 1-420).
T1 construct: GSK3β; the construct is not described further; The pull-down methods speak of His-tagged fusion proteins expressed in bacterial cells, the protein methods of insect cells; also called 6×His-GSK3β; His-tagged GSK3β; source: insect cells, purified (Ni-NTA agarose)
As to the kind of experiment: pull-down; GST fusion protein-bound sepharose beads incubated 2 h at 4 °C with purified MBP fusion proteins or His-tagged protein; PBS, 0.1% Triton X-100; anti-MBP or anti-His blot. To be noted: both partners purified.

Results on one molecule are retold here after PMC5159797, “Phosphorylation of SKAP by GSK3β ensures chromosome segregation by a temporal inhibition of Kif2b activity” (Scientific Reports, 2016).

T1 sequence (P49841 whole entry, the tested form may be a part): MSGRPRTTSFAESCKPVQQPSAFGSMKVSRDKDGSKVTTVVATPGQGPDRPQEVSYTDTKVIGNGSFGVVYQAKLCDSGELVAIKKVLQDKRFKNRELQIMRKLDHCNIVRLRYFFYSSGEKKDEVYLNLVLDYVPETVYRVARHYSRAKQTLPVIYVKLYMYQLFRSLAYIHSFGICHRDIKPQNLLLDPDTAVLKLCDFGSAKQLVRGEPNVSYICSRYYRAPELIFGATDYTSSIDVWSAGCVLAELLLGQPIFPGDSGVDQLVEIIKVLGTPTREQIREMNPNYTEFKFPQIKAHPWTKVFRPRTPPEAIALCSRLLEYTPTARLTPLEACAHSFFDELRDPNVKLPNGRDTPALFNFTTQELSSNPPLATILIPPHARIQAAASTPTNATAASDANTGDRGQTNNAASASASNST

B1: GST-SKAP (natural protein, UniProt Q9Y448 1-316, looked up)
chain: MAAPEAPPLDRVFRTTWLSTECDSHPLPPSYRKFLFETQAADLAGGTTVAAGNLLNESEKDCGQDRRAPGVQPCRLVTMTSVVKTVYSLQPPSALSGGQPADTQTRATSKSLLPVRSKEVDVSKQLHSGGPENDVTKITKLRRENGQMKATDTATRRNVRKGYKPLSKQKSEEELKDKNQLLEAVNKQLHQKLTETQGELKDLTQKVELLEKFRDNCLAILESKGLDPALGSETLASRQESTTDHMDSMLLLETLQEELKLFNETAKKQMEELQALKVKLEMKEERVRFLEQQTLCNNQVNDLTTALKEMEQLLEM
notes: SKAP (small kinetochore-associated protein), full length, cloned into pGEX-5X-3; also called GST-tagged SKAP full length; GST-SKAP-WT; source: E. coli Rosetta (DE3), purified on glutathione-sepharose 4B
With B1, the binding result was “binds”.
